Key:
Assay in all cases: high performance liquid chromatography; mass of the native TTR compared with the subunit mass; data not shown
[1] = target: pigC/crocTTR (Crocodylus porosus TTR with the C-terminal sequence changed to that of S. scrofa TTR) (Crocodylus porosus | Sus scrofa) (UniProt O55245)
[2] = target: pigC/huTTR (human TTR with the C-terminal sequence changed to that of Sus scrofa TTR) (human | Sus scrofa)
[3] = target: xenoN/pigC/huTTR (human TTR with the N-terminal and C-terminal sequences changed to those of Xenopus laevis and S. scrofa, respectively) (Xenopus laevis | human | Sus scrofa) (UniProt B7ZS96)

Chain of xenoN/pigC/huTTR (human TTR with the N-terminal and C-terminal sequences changed to those of Xenopus laevis and S. scrofa, respectively) (P50390 whole entry, looked up): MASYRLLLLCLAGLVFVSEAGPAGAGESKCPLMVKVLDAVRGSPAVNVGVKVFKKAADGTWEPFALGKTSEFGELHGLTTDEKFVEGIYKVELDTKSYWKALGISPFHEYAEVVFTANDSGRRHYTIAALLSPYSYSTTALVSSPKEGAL
Chain of xenoN/pigC/huTTR (human TTR with the N-terminal and C-terminal sequences changed to those of Xenopus laevis and S. scrofa, respectively) (B7ZS96 whole entry, looked up): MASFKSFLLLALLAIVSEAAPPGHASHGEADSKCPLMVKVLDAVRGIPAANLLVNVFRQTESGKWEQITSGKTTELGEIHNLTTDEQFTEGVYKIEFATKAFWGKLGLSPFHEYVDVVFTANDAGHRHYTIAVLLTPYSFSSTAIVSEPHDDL
Chain of pigC/huTTR (human TTR with the C-terminal sequence changed to that of Sus scrofa TTR) (P50390 whole entry): as the sequence (P50390 whole entry, looked up) above

Work on “pigC/crocTTR (Crocodylus porosus TTR with the C-terminal sequence changed to that of S. scrofa TTR) (from UniProt O55245 21-114; P50390 135-150)” yielded a stoichiometry N [1] of 4.

For “pigC/huTTR (human TTR with the C-terminal sequence changed to that of Sus scrofa TTR) (from UniProt P50390 141-150)”, the stoichiometry N [2] was 4.

With “xenoN/pigC/huTTR (human TTR with the N-terminal and C-terminal sequences changed to those of Xenopus laevis and S. scrofa, respectively) (from UniProt B7ZS96 1-9; P50390 141-150)” the stoichiometry N [3] was 4.
